Data taken from patent US20210046117A1.
Like-named read-outs stand apart in the source and are kept apart here.

Tests used:
[1] = biological target: CD19 on CD19+ Raji B cells (UniProt P15391); experiment: cell-based or functional assay
[2] = biological target: CD19 on CD19+ Raji B cells (UniProt P15391); experiment: cell-based or functional assay; remark: listed apart in the source

UniProt P15391, sequence (P15391 20-556 limits assumed): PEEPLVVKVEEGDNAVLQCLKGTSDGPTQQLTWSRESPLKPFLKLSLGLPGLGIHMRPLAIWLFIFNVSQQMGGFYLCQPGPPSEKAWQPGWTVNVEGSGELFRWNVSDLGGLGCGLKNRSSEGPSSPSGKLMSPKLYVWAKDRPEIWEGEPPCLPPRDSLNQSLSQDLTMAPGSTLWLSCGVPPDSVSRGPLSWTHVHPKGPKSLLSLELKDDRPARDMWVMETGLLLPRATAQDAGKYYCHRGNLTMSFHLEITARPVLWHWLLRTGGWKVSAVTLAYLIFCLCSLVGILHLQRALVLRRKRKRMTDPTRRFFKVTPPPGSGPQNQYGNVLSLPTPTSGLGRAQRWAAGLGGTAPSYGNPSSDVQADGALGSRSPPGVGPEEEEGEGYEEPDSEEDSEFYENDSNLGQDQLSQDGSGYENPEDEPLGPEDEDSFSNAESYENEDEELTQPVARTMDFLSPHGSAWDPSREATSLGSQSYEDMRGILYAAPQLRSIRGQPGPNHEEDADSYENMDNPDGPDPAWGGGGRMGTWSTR

anti-CD19 CAR (anti-CD19 CAR cassette as described in WO 2012/079000) (receptor)
activated cells in the population (CD25 and CD69 activation markers, flow cytometry, 24h co-culture) [1]: 3.9 to 12.1%
activated cells in the population (CD25 and CD69 activation markers, flow cytometry, 24h co-culture) [2]: 0.9 to 84.8%
